According to patent publication US20240270841A1:

Target: LILRB1 expressed on the surface of human natural killer cell KHYG-1 (human) (UniProt Q8NHL6)
Test: flow cytometry (iQue) on KHYG-1 NK cells, antibody 50 ug/mL

Sequence of LILRB1 expressed on the surface of human natural killer cell KHYG-1 (human) (Q8NHL6 24-650): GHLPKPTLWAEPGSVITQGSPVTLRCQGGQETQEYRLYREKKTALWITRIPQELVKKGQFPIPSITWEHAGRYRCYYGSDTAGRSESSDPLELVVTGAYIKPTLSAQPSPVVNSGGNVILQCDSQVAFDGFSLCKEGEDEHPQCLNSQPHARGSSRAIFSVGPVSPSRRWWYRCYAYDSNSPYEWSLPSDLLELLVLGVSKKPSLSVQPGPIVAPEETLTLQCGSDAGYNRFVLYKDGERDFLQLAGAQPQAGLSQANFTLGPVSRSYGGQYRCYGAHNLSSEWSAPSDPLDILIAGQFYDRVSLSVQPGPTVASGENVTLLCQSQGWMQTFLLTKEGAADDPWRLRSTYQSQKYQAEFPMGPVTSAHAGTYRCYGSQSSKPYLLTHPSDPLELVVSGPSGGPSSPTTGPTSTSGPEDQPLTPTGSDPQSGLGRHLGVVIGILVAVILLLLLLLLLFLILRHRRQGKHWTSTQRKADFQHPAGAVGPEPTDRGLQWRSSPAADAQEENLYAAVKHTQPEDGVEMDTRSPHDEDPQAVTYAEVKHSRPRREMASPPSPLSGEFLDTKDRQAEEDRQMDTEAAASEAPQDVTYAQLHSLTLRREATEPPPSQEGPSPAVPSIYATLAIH

## human IgG4 isotype control antibody (Biolegend)
  % of population 2: 2.95%
  Mean Fluorescence Intensity: 143000
